Data reported in patent US10849992B1, “Methods of screening for sortilin binding antagonists” (ALECTOR LLC, priority 2015, dated 2020).
“Also recorded” adds a separate entry of the source.

What was measured:
[1] = target: T1, Sortilin (Homo sapiens, UniProt Q99523); assay: Cell-based microscopy assay: DyLight-650 PGRN binding and endocytosis; design: expressed in transfected cells; host or cells: HEK293T; details: 10 μM blocker with 40 nM DyLight-650 PGRN, listed as sortilin pro-peptide
T1 sequence (Q99523 78-831): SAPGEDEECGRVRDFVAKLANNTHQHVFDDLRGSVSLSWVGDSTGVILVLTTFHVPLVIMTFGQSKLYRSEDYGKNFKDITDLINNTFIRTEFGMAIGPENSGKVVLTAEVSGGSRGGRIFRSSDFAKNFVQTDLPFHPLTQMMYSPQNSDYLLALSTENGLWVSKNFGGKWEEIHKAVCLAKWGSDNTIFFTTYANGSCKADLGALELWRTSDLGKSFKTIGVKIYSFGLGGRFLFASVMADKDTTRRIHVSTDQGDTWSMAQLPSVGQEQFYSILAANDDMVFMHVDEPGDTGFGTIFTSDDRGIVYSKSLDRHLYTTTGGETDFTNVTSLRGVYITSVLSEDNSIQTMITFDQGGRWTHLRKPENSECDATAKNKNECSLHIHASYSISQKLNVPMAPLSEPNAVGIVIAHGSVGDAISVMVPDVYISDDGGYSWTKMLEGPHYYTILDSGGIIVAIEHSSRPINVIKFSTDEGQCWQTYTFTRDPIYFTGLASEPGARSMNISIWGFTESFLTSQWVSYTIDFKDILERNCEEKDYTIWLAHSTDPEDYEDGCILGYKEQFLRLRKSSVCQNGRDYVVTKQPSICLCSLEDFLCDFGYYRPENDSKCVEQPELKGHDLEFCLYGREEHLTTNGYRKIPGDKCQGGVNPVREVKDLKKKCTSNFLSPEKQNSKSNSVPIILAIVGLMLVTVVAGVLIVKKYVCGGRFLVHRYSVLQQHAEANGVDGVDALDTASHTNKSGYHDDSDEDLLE
Description: HEK293T cells were transiently transfected with constructs for expressing sortilin or LacZ (control) and incubated with PGRN labeled using DyLight-650 (Life Technologies, Carlsbad, Calif.) for up to 60 minutes at 37° C. Binding and endocytosis of PGRN were observed by fluorescence microscopy. Recombinant human Progranulin (Adipogen) was labeled with DyLight 650 (Life Technologies, Carlsbad, Calif.). Cells were transiently transfected with human Sortilin or lacZ (control) and GFP using Fugene and harvested after 24 h. GFP was either expressed by a second vector (Topo3.3, Invitrogen) or located on the same vector, separated by an IRES (pCMV6-AC-IRES-GFP, Origene). Full-length Sortilin was used either untagged (Topo3.3) or with a C-terminal myc tag (pCMV6-AC-IRES-GFP). Cells were then plated on microscopy chambered glass slides coated with poly-1-lysine. After 4-6 h, cells were washed in OptiMem serum-free media, and 40 nM Progranulin-650 was added with or without 10 uM Sortilin pro-peptide as a blocker. Cells were incubated at 37° C. for up to 60′. Subsequently, cells were fixed in 4% paraformaldehyde, washed in PBS and imaged on a Nikon fluorescent microscope.

[2] = target: T1, Sortilin; assay: Cell-based PGRN-conditioned media assay (PGRN ELISA); design: expressed in transfected cells; host or cells: HEK293T; details: sortilin-expressing HEK293T; 36-48 h; 1 or 10 μM pro-peptide, 6.7 or 67 nM antibody
Description: HEK293T cells were transiently transfected with constructs for expressing sortilin or LacZ (control) and incubated with PGRN-conditioned media collected from PGRN transfected HEK293T cells. PGRN levels remaining in the media were measured after 36-48 h using a PGRN ELISA Duoset kit (R&D Systems). Cells were incubated with 1 or 10 μM sortilin pro-peptide, 6.7 nM or 67 nM goat anti-sortilin antibody (SORT1 Ab), or 67 nM control IgG.
To prepare hPGRN-conditioned media, Hek293T cells were transiently transfected with full-length, untagged human PGRN (pCMV-Sport6, Thermo Scientific) using Fugene HD (Promega). Media containing PGRN was collected after 48 h. For the experiment, Hek293T cells were transiently transfected with human Sortilin (untagged in Topo3.3) or lacZ (control, Topo3.3) using Fugene HD. After 4-6 h, media containing a 1:5 dilution of PGRN conditioned media was added to the cells with or without blockers [1 or 10 uM Sortilin pro-peptide; 6.7 or 67 nM goat anti-Sortilin antibody (SORT1 Ab, R&D Systems, AF3154) or control IgG (R&D Systems, AB-108-C)]. Cell supernatant was collected after 48 h and analyzed using a PGRN Elisa Duoset kit (R&D Systems, DY2420).

[3] = target: T1, Sortilin; assay: FACS assay: sortilin-mediated PGRN-DyLight650 binding and endocytosis; type: cell-based; design: Full-length Sortilin was used either untagged (Topo3.3) or with a C-terminal myc tag (pCMV6-AC-IRES-GFP); myc (only in the pCMV6-AC-IRES-GFP construct); expressed in transfected cells; host or cells: HEK293T; details: FIG. 10B
Description: Sortilin-expressing cells were GFP-positive, and untransfected cells were GFP-negative (as labeled in FIG. 10A).
A second assay was developed using DyLight-650-conjugated PGRN protein. In this assay, binding and endocytosis of PGRN were observed using either fluorescence microscopy (FIG. 9A-9F) or FACS (FIGS. 10A and 10B).

sortilin pro-domain peptide: peptide of the Sortilin1 pro-domain used as a blocker of PGRN binding (QDRLDAPPPPAAPLPRWSGPIGVSWGLRAAAAGGAFPRGGRWRR)
PGRN binding and endocytosis (DyLight-650 fluorescence) [1]: not observed; also recorded: little signal | PGRN levels in the media (rescue of sortilin-mediated reduction) [2]: partially rescued | blocking of PGRN binding to transfected cells [3]: blocked
